Assay results from patent US20260132197A1.

How the values were obtained:
[1] = molecular target: human CD47 on cells (SHP-77 tumor cells, human red blood cells, CCRF-CEM cells, human CD47 CHO-K1 stable cell line) (human) (UniProt Q08722); experiment: flow cytometry on human CD47 CHO-K1 cells; plateau not reached, not accurate
[2] = molecular target: wild type human CD47 (Acro Biosystems, cat. no. CD7-H5227) (human) (UniProt Q08722); experiment: SPR, IgG captured, CD47 in flow; exp 3
Human CD47-C33G (human) [3] = molecular target: Human CD47-C33G (human) (UniProt Q08722); experiment: SPR, IgG captured, CD47 in flow; exp 3
[4] = molecular target: wild type human CD47 (Acro Biosystems, cat. no. CD7-H5227) (human) (UniProt Q08722); experiment: SPR, IgG captured, CD47 in flow; exp 2
Human CD47-C33G (human) [5] = molecular target: Human CD47-C33G (human) (UniProt Q08722); experiment: SPR, IgG captured, CD47 in flow; exp 2
[6] = molecular target: human CD47 on cells (SHP-77 tumor cells, human red blood cells, CCRF-CEM cells, human CD47 CHO-K1 stable cell line) (human) (UniProt Q08722); experiment: flow cytometry on SHP-77 cells
Human CD47-C33G (human) [7] = molecular target: Human CD47-C33G (human) (UniProt Q08722); experiment: SPR, IgG captured, CD47 in flow; exp 2; estimated, out of instrument limit
[8] = molecular target: wild type human CD47 (Acro Biosystems, cat. no. CD7-H5227) (human) (UniProt Q08722); experiment: SPR, IgG captured, CD47 in flow; exp 1
Human CD47-C33G (human) [9] = molecular target: Human CD47-C33G (human) (UniProt Q08722); experiment: SPR, IgG captured, CD47 in flow; exp 1
[10] = molecular target: human CD47 on cells (SHP-77 tumor cells, human red blood cells, CCRF-CEM cells, human CD47 CHO-K1 stable cell line) (human) (UniProt Q08722); experiment: cell-based or functional assay
[11] = molecular target: cynomolgus CD47 on CHO-K1 stable cell line (cynomolgus); experiment: flow cytometry on cynomolgus CD47 CHO-K1 cells; plateau not reached, not accurate
[12] = molecular target: human CD47 on cells (SHP-77 tumor cells, human red blood cells, CCRF-CEM cells, human CD47 CHO-K1 stable cell line) (human) (UniProt Q08722); experiment: flow cytometry on human RBCs
[13] = molecular target: wild type human CD47 (Acro Biosystems, cat. no. CD7-H5227) (human) (UniProt Q08722); experiment: SPR, IgG captured, CD47 in flow; exp 1; remark: listed apart in the source
Human CD47-C33G (human) [14] = molecular target: Human CD47-C33G (human) (UniProt Q08722); experiment: SPR, IgG captured, CD47 in flow; exp 1; remark: listed apart in the source
Human CD47-C33G (human) [15] = molecular target: Human CD47-C33G (human) (UniProt Q08722); experiment: SPR, IgG captured, CD47 in flow; exp 3; estimated, out of instrument limit
[16] = molecular target: wild type human CD47 (Acro Biosystems, cat. no. CD7-H5227) (human) (UniProt Q08722); experiment: SPR, IgG captured, CD47 in flow; exp 4
Human CD47-C33G (human) [17] = molecular target: Human CD47-C33G (human) (UniProt Q08722); experiment: SPR, IgG captured, CD47 in flow; exp 4
Human CD47-C33G (human) [18] = molecular target: Human CD47-C33G (human) (UniProt Q08722); experiment: SPR, IgG captured, CD47 in flow; exp 1; estimated, out of instrument limit
[19] = molecular target: wild type human CD47 (Acro Biosystems, cat. no. CD7-H5227) (human) (UniProt Q08722); experiment: SPR, IgG captured, CD47 in flow; exp 2; remark: listed apart in the source
Human CD47-C33G (human) [20] = molecular target: Human CD47-C33G (human) (UniProt Q08722); experiment: SPR, IgG captured, CD47 in flow; exp 2; remark: listed apart in the source

Chain of cynomolgus CD47 on CHO-K1 stable cell line (cynomolgus) (chain, as listed by the source): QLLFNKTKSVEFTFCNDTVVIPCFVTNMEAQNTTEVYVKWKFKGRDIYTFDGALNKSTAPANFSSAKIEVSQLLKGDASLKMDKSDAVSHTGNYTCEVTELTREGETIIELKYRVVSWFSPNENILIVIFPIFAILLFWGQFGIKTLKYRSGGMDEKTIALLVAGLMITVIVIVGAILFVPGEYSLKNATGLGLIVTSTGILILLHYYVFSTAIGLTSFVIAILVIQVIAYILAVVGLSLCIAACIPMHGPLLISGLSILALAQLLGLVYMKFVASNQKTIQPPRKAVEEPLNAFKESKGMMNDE

- EC50 [1]: 5.7 nM
- Kd [2]: 4.7 nM
- koff [2]: 0.0022 s⁻¹
- kon [2]: 460000 M⁻¹ s⁻¹
- kon (Human CD47-C33G (human) [3]): 160000 M⁻¹ s⁻¹
- Kd [4]: 4.3 nM
- koff [4]: 0.0024 s⁻¹
- kon [4]: 540000 M⁻¹ s⁻¹
- kon (Human CD47-C33G (human) [5]): 490000 M⁻¹ s⁻¹
- EC50 [6]: 2.8 nM
- Fitted maximal MFI [6]: 25400 MFI
- Kd (Human CD47-C33G (human) [7]): > 200 nM
- Kd [8]: 4.4 nM
- koff [8]: 0.0024 s⁻¹
- kon [8]: 550000 M⁻¹ s⁻¹
- Kd (Human CD47-C33G (human) [9]): 540 nM
- koff (Human CD47-C33G (human) [9]): 0.09 s⁻¹
- kon (Human CD47-C33G (human) [9]): 170000 M⁻¹ s⁻¹
- CCRF-CEM phagocytosis EC50 [10]: 0.49 nM
- CCRF-CEM phagocytosis, Phagocytosis (%) [10]: 68.6%
- EC50 [11]: 9.7 nM
- EC50 [12]: 4.3 nM
- Fitted maximal MFI [12]: 21400 MFI
- Kd [13]: 4.5 nM
- koff [13]: 0.0022 s⁻¹
- kon [13]: 500000 M⁻¹ s⁻¹
- kon (Human CD47-C33G (human) [14]): 190000 M⁻¹ s⁻¹
- Kd (Human CD47-C33G (human) [15]): > 630 nM
- koff (Human CD47-C33G (human) [15]): > 0.1 s⁻¹
- Kd [16]: 4.7 nM
- koff [16]: 0.0018 s⁻¹
- kon [16]: 380000 M⁻¹ s⁻¹
- Kd (Human CD47-C33G (human) [17]): 600 nM
- koff (Human CD47-C33G (human) [17]): 0.13 s⁻¹
- kon (Human CD47-C33G (human) [17]): 210000 M⁻¹ s⁻¹
- Kd (Human CD47-C33G (human) [18]): > 530 nM
- koff (Human CD47-C33G (human) [18]): > 0.1 s⁻¹
- Kd [19]: 4.4 nM
- kon [19]: 550000 M⁻¹ s⁻¹
- Kd (Human CD47-C33G (human) [20]): 540 nM
- koff (Human CD47-C33G (human) [20]): 0.09 s⁻¹
- kon (Human CD47-C33G (human) [20]): 170000 M⁻¹ s⁻¹
B1: TJC4 positive control antibody (antibody, INN chains, looked up, V domains shown)
VH: EVQLVESGGGLVKPGGSLRLSCAASGLTFERAWMNWVRQAPGKGLEWVGRIKRKTDGETTDYAAPVKGRFSISRDDSKNTLYLQMNSLKTEDTAVYYCAGSNRAFDIWGQGTMVTVSS
VL: DIVMTQSPDSLAVSLGERATINCKSSQSVLYAGNNRNYLAWYQQKPGQPPKLLINQASTRASGVPDRFSGSGSGTEFTLIISSLQAEDVAIYYCQQYYTPPLAFGGGTKLEIK
